In the supplement of paper PMC10567573 one finds protein stability index data, which are given here for 94 variants.

The labels stand for the following.
B1: TRIM14 (parent)
chain: REQADSCREQLDIMNDLSNRVWSI
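Also: lentivirally expressed fusions sorted by FACS into six bins by GFP to DsRed ratio, PSI derived from sequencing read proportions per bin multiplied by bin number.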

Variants of B1 are the subject of this data set. Put plainly: protein stability index of a GFP-peptide fusion (GPS, HEK-293T) (PSI 1-6); higher = more stable. As to conditions: c terminus: a fixed tail appended.
As to REQADSCREQLDIMNDLSNRVWSC [I24C], the protein stability index was 2.53. Take REQADSCREQLDIMNDLSNRVWSA [I24A]: the protein stability index is 2.89. The result for REQADSCREQLDIMNDLHNRVWSI [S18H] reads 1.77; that for REQADSCREQLDIMNDLKNRVWSI [S18K], 1.87; that for REQADSCREQLDIMNDLCNRVWSI [S18C], 2.3. The result for REQADSCREQLDIMNDLQNRVWSI [S18Q] reads 1.63; that for REQADSCREQLDIMNDLANRVWSI [S18A], 2.29. On to REQADSCREQLDIMNDLYNRVWSI [S18Y], for which the protein stability index came out at 2.07. REQADSCREQLDIMNDLWNRVWSI [S18W]: the protein stability index is 2.21. As for REQADSCREQLDIMNDLVNRVWSI [S18V], the protein stability index was found to be 1.99.

Consider REQADSCREQLDIMNDLTNRVWSI [S18T], for which the protein stability index worked out at 2.05. Regarding REQADSCREQLDIMNDLRNRVWSI [S18R], the protein stability index stood at 1.64. The result for REQADSCREQLDIMNDLPNRVWSI [S18P] reads 2.35. Take REQADSCREQLDIMNDLGNRVWSI [S18G]: the protein stability index worked out at 1.83.

As for REQADSCREQLDIMNDLFNRVWSI [S18F], the protein stability index amounted to 1.48.

As to REQADSCREQLDIMNDLINRVWSI [S18I], the protein stability index was 2.2. Regarding REQADSCREQLDIMNDLLNRVWSI [S18L], the protein stability index was 1.73. For the variant REQADSCREQLDIMNDLMNRVWSI [S18M], the protein stability index came to 2.01. As for REQADSCREQLDIMNDLDNRVWSI [S18D], the protein stability index is 2.8. For REQADSCREQLDIMNDLENRVWSI [S18E], the protein stability index was 2.75. On to REQADSCREQLDIMNDLNNRVWSI [S18N], for which the protein stability index was found to be 2.14. On to REQADSCREQLDILNDLSNRVWSI [M14L], for which the protein stability index was found to be 1.99. In the case of REQADSCREQLDIINDLSNRVWSI [M14I], the protein stability index turned out to be 2.2.

For the variant REQADSCREQLDIRNDLSNRVWSI [M14R], the protein stability index is 2.03. For the variant REQADSCREQLDITNDLSNRVWSI [M14T], the protein stability index worked out at 2.5. For the variant REQADSCREQLDINNDLSNRVWSI [M14N], the protein stability index was determined as 2.98. The result for REQADSCREQLDISNDLSNRVWSI [M14S] reads 2.81; that for REQADSCREQLDIGNDLSNRVWSI [M14G], 2.26. As for REQADSCREQLDIKNDLSNRVWSI [M14K], the protein stability index stood at 2.33.

As for REQADSCREQLDIPNDLSNRVWSI [M14P], the protein stability index came out at 2.93.

As to REQADSCREQLDIQNDLSNRVWSI [M14Q], the protein stability index came to 2.79.

On to REQADSCREQLDIHNDLSNRVWSI [M14H], for which the protein stability index was found to be 2.45. With REQADSCREQLDIWNDLSNRVWSI [M14W], the protein stability index came out at 1.78. The result for REQADSCREQLDIVNDLSNRVWSI [M14V] reads 2.26; that for REQADSCREQLDIFNDLSNRVWSI [M14F], 1.76; that for REQADSCREQLDIYNDLSNRVWSI [M14Y], 1.72. Take REQADSCREQLDIMNDLSNRVWMI [S23M]: the protein stability index amounted to 2.22.

REQADSCREQLDIMNDLSNRVWVI [S23V]: the protein stability index was 3.3.

REQADSCREQLDIMNDLSNRVWDI [S23D]: the protein stability index stood at 4.14. With REQADSCREQLDIMNDLSNRVWPI [S23P], the protein stability index came out at 3.48. Take REQADSCREQLDIMNDLSNRVWKI [S23K]: the protein stability index came to 2.09. With REQADSCREQLDIMNDLSNRVWFI [S23F], the protein stability index was 2.03. With REQADSCREQLDIMNDLSNRVWAI [S23A] the figure was 2.09. With REQADSCREQLDIMNDLSNRVWYI [S23Y] the figure was 1.92. For REQADSCREQLDIMNDLSNRVWQI [S23Q], the protein stability index turned out to be 2.68. In the case of REQADSCREQLDIMNDLSNRVWRI [S23R], the protein stability index amounted to 2.11. As to REQADSCREQLDIMNDLSNRVWEI [S23E], the protein stability index stood at 2.65. Consider REQADSCREQLDIMNDLSNRVWGI [S23G], for which the protein stability index was 2.66.

As for REQADSCREQLDIMNDLSNRVWLI [S23L], the protein stability index amounted to 2.81. On to REQADSCREQLDIMNDLSNRVWII [S23I], for which the protein stability index was 2.75.

REQADSCREQLDIMNDLSNRVWNI [S23N]: the protein stability index was 2.71. Consider REQADSCREQLDIMNDLSNRVWHI [S23H], for which the protein stability index stood at 2.07. Turning to REQADSCREQLDIMNDLSNRVWCI [S23C], the protein stability index came out at 2.57.

On to REQADSCREQLDIMNDLSNRVWTI [S23T], for which the protein stability index was 1.84. As to REQADSCREQLDIMNDLSNRVWWI [S23W], the protein stability index came out at 3.05. REQADSCREQLDIMNDLSNPVWSI [R20P]: the protein stability index came out at 2.48. On to REQADSCREQLDIMNDLSNSVWSI [R20S], for which the protein stability index is 2.41. In the case of REQADSCREQLDIMNDLSNHVWSI [R20H], the protein stability index is 2.73. The result for REQADSCREQLDIMNDLSNKVWSI [R20K] reads 2.78; that for REQADSCREQLDIMNDLSNDVWSI [R20D], 3.31; that for REQADSCREQLDIMNDLSNAVWSI [R20A], 2.8. Take REQADSCREQLDIMNDLSNVVWSI [R20V]: the protein stability index is 2.4. Regarding REQADSCREQLDIMNDLSNLVWSI [R20L], the protein stability index was determined as 1.29. For the variant REQADSCREQLDIMNDLSNEVWSI [R20E], the protein stability index worked out at 3.04.

Turning to REQADSCREQLDIMNDLSNGVWSI [R20G], the protein stability index is 2.77. With REQADSCREQLDIMNDLSNFVWSI [R20F] the figure was 2.12. The result for REQADSCREQLDIMNDLSNMVWSI [R20M] reads 2.24. In the case of REQADSCREQLDIMNDLSNYVWSI [R20Y], the protein stability index is 2.26. For the variant REQADSCREQLDIMNDLSNTVWSI [R20T], the protein stability index stood at 2.19.

With REQADSCREQLDIMNDLSNNVWSI [R20N], the protein stability index amounted to 2.91.

As to REQADSCREQLDIMNDLSNCVWSI [R20C], the protein stability index amounted to 1.99.

For the variant REQADSCREQLDIMNDLSNWVWSI [R20W], the protein stability index amounted to 1.64. For the variant REQADSCREQLDIMNDLSNIVWSI [R20I], the protein stability index stood at 2.

Consider REQADSCREQLDIMNDLSNQVWSI [R20Q], for which the protein stability index came to 1.79. With REQADSCREQLDIMNFLSNRVWSI [D16F], the protein stability index stood at 1.86. As to REQADSCREQLDIMNRLSNRVWSI [D16R], the protein stability index worked out at 2.85. With REQADSCREQLDIMNWLSNRVWSI [D16W] the figure was 2.04; with REQADSCREQLDIMNPLSNRVWSI [D16P], 1.52; with REQADSCREQLDIMNELSNRVWSI [D16E], 2.06. On to REQADSCREQLDIMNILSNRVWSI [D16I], for which the protein stability index was 1.77. As for REQADSCREQLDIMNNLSNRVWSI [D16N], the protein stability index was found to be 1.63. On to REQADSCREQLDIMNLLSNRVWSI [D16L], for which the protein stability index is 1.68. For REQADSCREQLDIMNHLSNRVWSI [D16H], the protein stability index amounted to 1.64.

On to REQADSCREQLDIMNGLSNRVWSI [D16G], for which the protein stability index amounted to 2.25. With REQADSCREQLDIMNMLSNRVWSI [D16M] the figure was 1.61. On to REQADSCREQLDIMNSLSNRVWSI [D16S], for which the protein stability index was 2.19.

REQADSCREQLDIMNKLSNRVWSI [D16K]: the protein stability index was 3.35. With REQADSCREQLDIMNVLSNRVWSI [D16V], the protein stability index is 1.65. As for REQADSCREQLDIMNQLSNRVWSI [D16Q], the protein stability index was determined as 2.18. Regarding REQADSCREQLDIMNCLSNRVWSI [D16C], the protein stability index came to 1.8.

Consider REQADSCREQLDIMNYLSNRVWSI [D16Y], for which the protein stability index stood at 2.01. Take REQADSCREQLDIMNALSNRVWSI [D16A]: the protein stability index came to 2.28. With REQADSCREQLDIMNTLSNRVWSI [D16T] the figure was 1.99; with REQADSCREQLDIMQDLSNRVWSI [N15Q], 1.89.
